Assay results reported in the DeepSol protein solubility set.

Experiment: soluble on expression in E. coli; label from the status in PepcDB or PDB records

Sequence	soluble on expression in E. coli
MSHAVTIEEPQAQPQVSQTRYRERSRAGSHISSNRAYDFLYDPLFIVSSEKDHTQANIQATLIRSRLRKVPRFKTMFSNLIHYPRYSLYWSKSDPVPPFISREWKGHKEKHREALRQLTTTDASFQMPKEVYEDPEVTGKNRYKYFERPFLPFFQQMPFNVVYAVSKAEPYTFPPTSTKHLSIPSKSTVGTQTDYRDADVQTDPYSPEYVVCQDSIPELLTLATLTWGRGLPAGQAEVEMIERAREKRAWEASLPALSDTSQFEKRRKMMNEMERKEWAFREQEIEKLQEIRLEVLKELLRKREENQNEVNMKHLNARWSKLQEGKEAKMAVIYLQKLLRGRVIQNMMFEGKEKRLELIQELRTCHALQEDEKLVKKAEKQVTLALQRQRNLHEHKVSLVENHLAGLEGRALADMFDFLSKELVRLQEERRIHAFVMLAERQRRVREAEESGRRQVEKQRLREEDEIFKEVVKVHHSTISSYLEDIILNTEANTAEEQARAEIEKMAEKINDIAYEMESRRTYLQSEEIVAELVYSFLIPEVQKYFVKEKVRNAQRKHILAAHQIIHSYTESMVQKKLTEGEQDEASNAAMLLEKETQNENNS	not soluble
MSLKMEDIAISITGYSYSNIKETIPDGVDKEEIAAVYEEIIDEYLQKGIPREIPALINVSGVPGAGKSTFCKKLLAMPENSSAIYIGFDAIMENERLPYIREEVNHAEEAFKRWELSARIAGYELLKRAIENKYLIIFDHSSALSQHIDLFNLLLSEGYEVHFNFIFIPEEEARRRAKNRKRYIPPYYIEERSKTLQYLLPEYKRICTTFKQIEPMRTRLIIARHGNTFRPEETPTRVGAKTDLPLVEEFKGRSIGRYLKEHDMIPDVIYAAPLLRTMQTARLAVQTIGLDSDISPLNAFVEIDYGVDENKTEEEVRLRLGNGNIEKGKKIIEDWDKNAVVPDGWKVDPDQIIHTWLDFAEKTVIPHQTTLLVTSNGIIRFAPYLTGDFEKFAQEHKIKVAPGGLCIFDKNDGDSFWTCSAWNVKPYELYADSEGHHHHHH	soluble
MSLNETYMMITFQSGMDYWKRCLKGFEDAAQALNVTVEYRGAAQYDIQEQITVLEQAIAKNPAGIAISAIDPVELTDTINKAVDAGIPIVLFDSGAPDSHAHSFLGTNNYNAGMNAAYKMAELLDGEGEVAVITLPNQLNHQERTTGFKETLEAEFPAIEVIAVEDGRGDSLHSRRVAHQLLEDYPNLAGIFATEANGGVGVGDAVRLESRAGEIQIISFDTDKGTLDLVDEGIISATLAQGTWNMGYWSLTYLFHLHHGLTEPQILQTREEAPLPLYVDTGITIVTDENVDYYYADEGHHHHHH	soluble
QTNNDEELQDMSDPLAVYTQAGFGITDKGANIKIGQTYQSSQPGTMAMNIIEMKGIGGELFGIRDNDDPMYANVDDSIDSFRLRNFQVEVAKGLGRQLDVNYDVDNDKLDASYSFIQGLPK	not soluble
MKRIGVLTSGGDSPGMNAAIRAVVRKAIFHDIEVYGIYHGYAGLISGHIEKLELGSVGDIIHRGGTKLYTARCPEFKDPEVRLKGIEQLKKHGIEGLVVIGGDGSYQGAKKLTEQGFPCVGVPGTIDNDIPGTDFTIGFDTALNTVIDAIDKIRDTATSHERTYVIEVMGRHAGDIALWAGLADGAETILIPEEEYDMEDVIARLKRGSERGKKHSIIVVAEGVGSAIDIGKHIEEATNFDTRVTVLGHVQRGGSPSAQDRVLASRLGARAVELLIAGKGGRCVGIQDNKLVDHDIIEALAQKHTIDKDMYQLSKELSI	not soluble
MGSDKIHHHHHHLRNSIDLTKKIKEKAFEEGFDAVGIAKVPGSSRIKLRTASLERWLQAGHQATMEWMKSPRRKDIENMLQGVKSILAVGLNYYVDTERESKDISIARYGWGKDYHKIIEEKLKKVAKFLETERPNAKWKICVDTSAFLDKAWAEEAGIGWIGKHSNVINSEIGSWMFLGHLLSTEVLEADKPSKPICGECEKCIEACPTKAIEEPFIVNSYKCLAYHTLENRDQELPENIINKMGNWIAGCDICQDVCPWNQKHIPSTTEPDLQPSEWILHTTKQDLLSWDDAKWKESLKNSALKRIKPWMWRRNIDSISKKT	not soluble
MKRDQLKSLLLGAILLAGITLPAKAQIGEQRHNFAIGINGGANYSTVSFQPTIKQNGLLGITGGVTARYISEKYFAMICGAQLELNFSQRGWDEKFDPEQGFSSEDSYVRTMNYLEIPFLAHLAFGKDKGVQFFVNLGPQIGLLLNESEKRKGTWETANRAPNEQYGKWVENKFDYGIVGGGGIEVRTKAGNFLLEGRYYFGLADFYNSTKKDYFSRSANSTITAKITYLFDIKK	not soluble
MGSDKIHHHHHHMRTPVPRVAAIHDLSGFGRTSLTVAMPVLSSMGVQVCPLPTAVLSTHTSGFENFSFVDLTEQMHSILDHWQSLNLKFDAVYSGFLGSPEQVDIVARCIDMFRTPDGLAVVDPVMGDNGEMEPTMTLEMVHRMRWLVTKADIITPNFTEAAFLLDEKYTTEATVSTVKDWLRRLTAMGPSIAIITSVPVHGDERRSAVMAYNRRHDRFWKVDCSYIPAHYPGTGDTFASVVTGALLQGDSLPIAMDRAVQFVTMGIRATFGHNLPSRDGILLERVLDTLRAPVTSSSFELLDNDGEQCACR	not soluble
MGHHHHHHSHMANSAGSMANSAGSPELLTKHNRRVAQKTVESLKRSLMSTNLHPSKQVKTSSQYTIFSTPQIATTTPQTQVSPGMPLMFPGGSPNFVQDIKMENGFMDVDSQSSQCPSVERNFASPRSNCSTVDSIPPMQMGQNQTHLYLPDATNFTFNGNFASPSSNCSTVDSIPPFQIGQRNNHMYLPENSNFPVNGCSPTHFSGGSMTPINNNNNVLINNNNNDFLSQKMSAISIPPQGNFGIKQVYQQTQQFLPQLQPESIPYLAQSHPEQSQYQQQQQPQEQQPPADEPTQSFSDLISSSIGMAPIDTSELIQDIEAELNSLGIQPFK	not soluble
MAGDPMLNSFKLSLQYILPKLWLTRLAGWGASKRAGWLTKLVIDLFVKYYKVDMTEAQKPDTASYRTFNDFFVRPLRDDVRPLNTDPNILVMPADGVISQLGRIEEDKILQAKGHNYSLEALLAGNYLMADKFRNGTFVTTYLSPRDYHRVHMPCNGILREMIYVPGDLFSVNHLTAQNVPNLFARNERVICLFDTEFGPMAQILVGATIVGSIETVWAGTITPPREGIIKRWTWPEGEHEGSVALLKGQEMGRFKLGSTVINLFAPGKVNLIASLASLSVTKIGQPLATSTETFVAPEVEPAPLPAEEIKAEHDASPLVDNKKDDTLEHHHHHH	soluble
MKNQLIDRLTRYTTIDTQSDPKSTTTPSTEKQWDLLHLLEKELQQLGLPTDLDENGYLFATLESNIDVDVPTVGFLAHVDTSPDFNASNVKPQIIENYDGKPYKLGNTKRVLDPKVFPELNSLVGHTLMVTDGTSLLGADDKAGIVEIMEAICYLQEHPEIKHGTIRIGFTPDEEIGRGPHKFDVDRFNADFAYTMDGSQYGELQYESFNAAEAVITCHGVNVHPGSAKNAMVNAIRLGEQFDSLLPDSEVPERTEGYEGFYHLMNFEGTVEKATLQYIIRDHDKKQFELRKKRILEIRDDINAHFENYPVKVDISDQYFNMAEKILPLPHIIDIPKRVFAKLDIPANTEPIRGGTDGSQLSFMGLPTPNIFTGCGNFHGPYEYASIDVMEKAVQVIIGIVEDIAENH	not soluble
AIADAFEHENRYVHAVYEAIGDHFSATRYRTWPRVQAFLEQLAHEALVLDSGAGNGKYALPVLRQHGYYIAADRCRRLLLRARWQSDALEAQETALLPVECVQADCLFLPFRSGVFDVALSIAVIHHVATARRRVGAVVELGRVLRPTGHALVYVWALRAIPLKLRSRAQSTMDGYLLPWHHKRSTGADALPQKKSDSPSQTYFRFYHLFEEDELRMLVEEANAVSKEGAATTWTLRITGETFDHQNYVVEFQRQNIHALLEDAADNILHPSI	soluble
MVQTYRSPVRIYKHPFEIVMAAYEMRFPTCPQIPIFVGSEVTYEYKSVDGAEWVIDRKCQLNVEAPYLVKKIAGVDYVYFSQKNSLDRRKRTLDIEATNISFSSRINVKENCTYYVHAENENWTCFEQSASLDVKNFFGLESAVEKLAVRQYGANLAKGKEILEFFIEELLKKTTHIERFRDADQEETTSATDSAIEMKELSDGDAVLVNDRPPMLAAETDEMRTARATASFDDACRVCMIIYCRIFIIISSYFFNFPADSKLEAEYIRRFLGQLSPLEESRLCEIKYSLQAHHKGKLPNDAHLLRFLRARDFDVAKAKDMVHASIIWRKQHNVDKILEEWTRPTVIKQYFPGCWHNSDKAGRPMYILRFGQLDTKGMLRSCGVENLVKLTLSICEDGLQRAAEATRKLGTPISSWSLVVDLDGLSMRHLWRPGVQCLLKIIEIVEANYPETMGQVLVVRAPRVFPVLWTLISPFIDEKTRKKFMVSGGSGGDLKEELRKHIEEKFIPDFLGGSCLTTNCGLGGHVPKSMYLPVEEQEGASSSEDPLHSTYTSTATWRGYPVEVVIPIETAGCVLTWDFDVLKNDCEFSLYFSTEKIEQPAVRDGAQSPTTILNPVEMVSAAIGGASHQHPDLQCAPELKIGTPQLRLEEKAVVFQEGDSMQGSHYCSRAGTYIMQWRVPETAAGHSSTFDFGSHKCRLIYYYEILNSENFRGSVASLESCRSSSFSSIAPPTPPTPGTPRNP	not soluble
MSLLAGVKLEKRDKTLVDATEALAGKAVGFYFSAHWCPPCRGFTPILKDFYEEVEDEFEVVFVSFDRSESDLKMYMSEHGDWYHIPYGNDAIKELSTKYGVSGIPALIIVKPDGTEVTKDGRNDVQNGKDPKATVAKWKA	not soluble
MSKWLNVGKIVNTHGVRGEVRVLSTTDFEDDRFSSGKTLYVMRPNQNERVAVTVASHRKHKNFDLLCFEGYPSINDVEAFKGGRLQVPIEDRPELGEGEFFYHEIIGCSVVTIAGEELGKVKEILSPGANDVWVVQCRRGGKDLLIPYIEQVVKQVDLEKQQITIEPMEGLLEAAALEHHHHHH	soluble
MEFIGDTRIVIINPLGAKKICRLTFEQIKVIYQEVKTHFENYRIIFTGLPQDLLTIPILEIETLPFDEFIYTVALTKYSDFVISVDTALVHIAAAYHKPTLAFYPNSRTPEYPSHLIWSPNHHKSIQIVSPTYTVKDIDTETLTNSVKRLEHHHHHH	not soluble
MGSDKIHHHHHHMLRDLVYPPGCATCGLPVAKAGSLCSDCWCSVRFIERPYCEILGLPFGFDPGQGMVCAEAIANPPVFDRLRAAVVHDGAARDLVHRLKYGDRTDLAPMMAHWMIRAGGQELLRADAILPVPLHRWRLFSRQYNQSAELGRALAGLSDKPFLPGVLTRVKRTQKQVGLTEKARADNVRGAFKVAENRRDQVFGRHLVLVDDVYTTGATVSAATRALKRAGAVEVTVLTFAMALVTPI	not soluble
SPGSAAKGSELSERIESFVETLKRGGGPRSSEEMARETLGLLRQIITDHRWSNAGELMELIRREGRRMTAAQPSETTVGNMVRRVLKIIREEYGRLHGRTDESDQQESLHKLLTSGGLNEDFSFHYAQLQSNIIEAINELLVELEGTMENIAAQALEHIHSNEVIMTIGFSRTVEAFLKEAARKRKFHVIVAECAPFCQGHEMAVNLSKAGIETTVMTDAAIFAVMSRVNKVIIGTKTILANGALRAVTGTHTLALAAKHHSTPLIVCAPMFKLSPQFPNEEDSFHKFVAPEEVLPFTEGDILEKVSVHCPVFDYVPPELITLFISNIGGNAPSYIYRLMSELYHPDDHVL	soluble
